Results on 1 molecule are retold here after patent publication US20230235080A1, “TROPHOBLAST CELL-SURFACE ANTIGEN-2 (TROP-2) ANTIBODIES” (Bionecure Therapeutics, Inc., priority 2020, published 2023).

For experiment [1], the target named is T1, human Trop-2-ECD-6His fusion protein (human, UniProt P09758 27-274).
T1 construct: Expressed in a human 293 cell line; also called huTrop-2; human Trop-2 antigen
T1 sequence: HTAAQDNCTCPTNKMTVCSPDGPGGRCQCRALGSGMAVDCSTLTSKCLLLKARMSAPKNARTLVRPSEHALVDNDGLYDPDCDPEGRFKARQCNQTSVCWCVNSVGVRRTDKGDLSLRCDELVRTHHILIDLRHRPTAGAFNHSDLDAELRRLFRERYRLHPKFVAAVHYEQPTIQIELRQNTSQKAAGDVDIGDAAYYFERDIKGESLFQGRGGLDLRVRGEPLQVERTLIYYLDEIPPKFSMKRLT
In words: BLI (Octet), antibody at 8 ug/ml, human Trop-2ECD-6His at 3.125-50 nM. On the procedure: The binding affinity of the purified anti-Trop-2 IgGs to human Trop-2 protein were determined by Octet system based on Bio-Layer Interferometry (BLI) technique. BLI is a layer of molecules attached to the tip of an optic fiber which creates an interference pattern at the detector, any change in the number of molecules bound causes a measured shift in the pattern. Octet system enables real-time analysis for determination of affinity and kinetics from biomolecular interactions in 96-well microplates. […] A1X4 or A1,2X4 antibody was diluted and added to the assigned wells at a final concentration 8 µg/ml. The plate was put in the Octet system and assay was started. The data was analyzed using the Octet Data Acquisition Software (fortebio data analysis 10.0) to calculate an association rate constant Kon, a dissociation rate constant Koff, and a dissociation constant Kd (Kd = Koff/Kon).
On the technique in general: In BLI a coated tip is dipped into the sample, and binding shifts an interference pattern.

The target in a further experiment is T2, mouse Trop-2-His (mouse, UniProt Q8BGV3 25-270).
T2 sequence (looked up): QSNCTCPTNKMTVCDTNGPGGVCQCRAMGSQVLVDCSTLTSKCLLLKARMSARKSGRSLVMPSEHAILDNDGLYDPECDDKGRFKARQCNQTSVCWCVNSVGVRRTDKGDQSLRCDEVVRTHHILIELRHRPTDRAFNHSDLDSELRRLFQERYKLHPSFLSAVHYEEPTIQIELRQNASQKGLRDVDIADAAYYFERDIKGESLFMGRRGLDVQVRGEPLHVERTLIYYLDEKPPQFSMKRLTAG
In words: ELISA on coated antigen, one antibody dilution (concentration not given), detected by GAH-HRP, OD450nm. The method, then: (§1) The cross-reactivity of purified IgGs to the Trop-2 antigens from different species was tested by ELISA. In this experiment, a microtiter plate was coated overnight at 4° C. with 50 µL/well of 1 µg/mL human Trop-2ECD-6His, mouse Trop-2-His, cynomolgus Trop-2-His, human EPCAM-His, and a non-related protein. The plate was washed and blocked for 1 hr at 37° C., and then washed with wash buffer. Purified anti-Trop-2 antibodies appropriately diluted in PBS were added to wells and incubated for 1 hour at 37° C. After washing, bound antibodies were detected using HRP-conjugated goat-anti-human IgG antibody. Color development and absorbance at OD450 nm were read. A non-specific human IgG1 was included as a negative control, while hRS7 was used as a positive control.
On the technique in general: ELISA stands for enzyme-linked immunosorbent assay.

For another experiment, the target named is T3, human EPCAM-His (human, UniProt P16422 24-265).
T3 construct: also called hEPCAM
T3 sequence (looked up): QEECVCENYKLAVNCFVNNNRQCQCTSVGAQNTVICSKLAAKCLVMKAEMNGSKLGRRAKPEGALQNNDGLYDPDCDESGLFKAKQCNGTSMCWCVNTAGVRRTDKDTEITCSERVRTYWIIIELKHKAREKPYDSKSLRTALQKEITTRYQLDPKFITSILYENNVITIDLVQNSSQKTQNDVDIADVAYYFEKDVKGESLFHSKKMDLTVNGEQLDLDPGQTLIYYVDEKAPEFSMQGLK
The experiment is described as above. On the procedure: as §1

In experiment [2] the target is T4, human Trop-2 on Trop-2 positive cancer cells (human, UniProt P09758 27-323).
T4 construct: Endogenous Trop-2 of human tumour cell lines
T4 sequence (looked up): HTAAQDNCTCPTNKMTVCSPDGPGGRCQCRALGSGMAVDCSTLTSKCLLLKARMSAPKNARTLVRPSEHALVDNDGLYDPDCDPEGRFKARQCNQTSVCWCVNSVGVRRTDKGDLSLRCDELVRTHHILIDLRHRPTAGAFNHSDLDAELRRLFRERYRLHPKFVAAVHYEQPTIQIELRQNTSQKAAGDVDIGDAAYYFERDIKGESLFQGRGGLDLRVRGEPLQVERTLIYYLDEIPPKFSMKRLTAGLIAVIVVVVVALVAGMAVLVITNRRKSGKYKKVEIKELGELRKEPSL
The experiment is described as follows: flow cytometry on MDA-MB-468 cells, MFI at 4 °C against the antibody concentration (about 400 to 10000 ng/ml); Kd (µg/ml) printed beside the legend. On the procedure:
Internalizationi and degradation of anti-Trop-2 antibodies was measured by flow cytometry. In this study, fluorescent-conjugated secondary antibodies were used to detect the primary antibodies left on after internalization.
Next, either hRS7, or A1X4, or A1,2X4 antibody was added to cells in FACS buffer at concentrations of 400, 1000, 3000, or 10000 ng/ml, respectively, and incubated for 30 minutes at 4° C. After incubation, the cells were washed three times with FACS buffer to removed unbound antibody. The cells were then incubated at 37° C. with 5% CO₂ for antibody internalization. After 2 hours, the cells were dissociated with Trypsin and stained with fluorescent-conjugated goat anti-human IgG secondary antibodies for 30 minutes on ice in dark before being analyzed using Beckman flow cytometry system. The fluorescent intensity and cell binding percentage at each time point were analyzed by Beckman flow cytometric software. The amount of anti-Trop-2 antibodies internalized into cells at each concentration was determined using the following formula: % internalization rate = 100 × (MFI₄°C- MFI₃₇°C) / MFI₄°C
A general note: A flow cytometer gives signals particle by particle.

B1: humanized IgG A1,2X4 (antibody, V domains shown)
VH: QVQLQESGPGLVKPSETLSLTCTVSGFSLTSYGVNWIRQPPGKGLEWIGVMWAGGSTNYNSALMSRLTISKDTSKNQFSLKLSSVTAADTAVYYCARDENWDGAWFAYWGQGTLVTVSS
VL: DIVMTQSPDSLAVSLGERATINCKSSQSLLNSGTRKNYLAWYQQKPGQPPKLLISWASSRESGVPDRFSGSGSGTDFTLTISSLQAEDVAVYYCKQSYNLFTFGGGTKVEIKR
notes: Full-length IgG expressed in 293 cells; also called IgG HuA(1,2)/Lu(X4)
As to B1, the Kd came out at 4.09 nM in experiment [1] and 0.93 µg/mL in experiment [2]. Further, the koff in experiment [1] stood at 0.000844 s⁻¹. Moreover, the binding result with mouse Trop-2-His and in the experiment with human EPCAM-His was “no binding” each time.

By Kd is commonly meant the concentration at which binding is half-saturated. Low readings indicate a tighter complex, high ones a looser complex. A word on the koff: it is the rate constant with which the complex falls apart. A low value points to slow dissociation.
